The values below are quoted from earlier work in publication PMC10062658.

One may read the Kd as the free concentration of one partner at which half of the binding sites on the other are occupied at equilibrium, for simple one-to-one binding.

In this series the target is PTH1R (Homo sapiens) (UniProt Q03431).
Sequence of UniProt Q03431 (Q03431 27-593): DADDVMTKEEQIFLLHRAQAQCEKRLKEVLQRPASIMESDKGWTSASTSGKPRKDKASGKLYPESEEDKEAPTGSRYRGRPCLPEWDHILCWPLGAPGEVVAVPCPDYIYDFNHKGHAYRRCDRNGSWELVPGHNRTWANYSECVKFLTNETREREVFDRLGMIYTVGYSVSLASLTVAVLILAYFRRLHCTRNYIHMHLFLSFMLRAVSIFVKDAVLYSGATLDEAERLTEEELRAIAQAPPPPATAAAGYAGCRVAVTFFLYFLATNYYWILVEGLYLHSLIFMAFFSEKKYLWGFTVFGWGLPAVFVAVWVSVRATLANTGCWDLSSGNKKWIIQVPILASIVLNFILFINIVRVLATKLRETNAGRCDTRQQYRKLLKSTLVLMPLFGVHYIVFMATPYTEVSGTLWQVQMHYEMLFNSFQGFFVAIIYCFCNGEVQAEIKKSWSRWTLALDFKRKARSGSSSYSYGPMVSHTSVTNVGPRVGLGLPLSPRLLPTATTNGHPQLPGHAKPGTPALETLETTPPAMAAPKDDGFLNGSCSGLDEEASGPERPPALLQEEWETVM

For PTH (from UniProt P01270), the Kd is 1 nM.
